Assay results taken from US20220290139A1, “METHODS AND COMPOSITIONS FOR GENE SPECIFIC DEMETHYLATION AND ACTIVATION” (NATIONAL UNIVERSITY OF SINGAPORE, priority 2019, published 2022).
“Also recorded” adds a separate entry of the source.

B1: MsgRNA: Example 1 modified sgRNA, guide G2, R2 in tetra-loop and R5 in stem loop 2, SEQ ID NO: 15; used with dCas9 (nucleic acid)
guide: GCACUCAAACACGCCUUUGCGUUUUAGAGCUACCCGGGACGCGGGUCCGGGACAGUAGCAAGUUAAAAUAAGGCUAGUCCGUUAUCAACUUCUGAGGCCUUGGCGAGGCUUCUAAGUGGCACCGAGUCGGUGCUUUUUU
modifications: MsgRNA
notes: used with dCas9
B2: MsgDiR7: R2-R2 modified sgRNA, SEQ ID NO: 54 (nucleic acid)
guide: NNNNNNNNNNNNNNNNNNNGUUUGAGAGCUACCCGGGACGCGGGUCCGGGACAGUAGCAAGUUCAAAUAAGGCUAGUCCGUUAUCAACUUCCCGGGACGCGGGUCCGGGACAGAAGUGGCACCGAGUCGGUGCUUUUUU
modifications: MsgDiR7 R2-R2 Sequence; (1)..(19) n is a, c, g, or u
B3: MsgDiR6: R2-R5 modified sgRNA scaffold (CRISPR-DiR), SEQ ID NO: 53; tested with guide G2 (nucleic acid)
guide: NNNNNNNNNNNNNNNNNNNGUUUGAGAGCUACCCGGGACGCGGGUCCGGGACAGUAGCAAGUUCAAAUAAGGCUAGUCCGUUAUCAACUUCUGAGGCCUUGGCGAGGCUUCUAAGUGGCACCGAGUCGGUGCUUUUUU
modifications: MsgDiR6 R2-R5 Sequence; (1)..(19) n is a, c, g, or u
notes: tested with guide G2

Assays:
[1] = tested on: P16 promoter; test: p16 methylation (MSP/COBRA) after transient transfection; assay type: cell-based, human; conditions: SNU-398, transient co-transfection with dCas9, guide G2, 72 hours
Description: (§1) In this example, a modified CRISPR/dCAS9 system for gene activation and demethylation was developed and tested with P16. The DiR localized in CEBPA locus (ecCEBPA) is repurposed to other specific gene target(s) for demethylation and reactivation. The RNA stem-loops (R2 and R5), interacting with DNMT1(1), were fused to the tetra- and stem-loop 2 in a single guide RNA (sgRNA) scaffold to obtain a modified sgRNA (MsgRNA, sgDiR in FIG. 1, also referred to as MsgDiR6 in Example 3 below). The hepatocellular carcinoma (HCC) cell line SNU-398, in which P16 is silenced by promoter methylation, was transiently transfected with dCas9 plasmid and one MsgRNA (using guide G2: […] (SEQ ID NO: 29), MsgRNA with guide G2 is shown as G2sgDiR in FIG. 1, as targeting portion) targeting the template strand of P16 promoter.
(§2) SNU-398 cells were seeded at a density of […] in 6-well plates 24 hours before transfection employing jetPRIME transfection reagent (Polyplus Transfection) as described by the manufacturer. 2 μg mix of sgRNA/MsgDiR and dCas9 plasmid(s) (sgRNA/MsgDiR: dCas9 molar ratio 1:1) were transfected into each well of cells. The culture medium was changed 12 hours after transfection. Alternatively, the Neon™ Transfection System (Thermo Fisher) was used for cell electroporation according to the manufacturer's instructions. The same plasmid amount and ratios were used in the Neon as in the jetPRIME transfection. The parameters used for the highest SNU-398 transfection efficiency were 0.7 to 1.5 million cells in 100 μl reagent, voltage 1550 V, width 35 ms and 1 pulse. The culture medium was changed 24 hours after transfection.
The methylation profiles of the p16 gene locus or the whole genome were assessed by bisulfite-conversion based assays. For DNA bisulfite conversion, 1.6-1.8 μg of genomic DNA of each sample was converted by the EpiTect Bisulfite Kit (Qiagen) following the manufacturer's instructions.
For Methylation-Specific PCR (MSP), both methylation specific primers and unmethylation specific primers of p16 were used for the PCR of the same bisulfite converted sample (the transient transfection samples in the sgRNA and MsgDiR1-8 screening assay). […] 7 min, 4° C. hold. […] 7 min, 4° C. hold. […] 7 min, 4° C. hold.

[2] = tested on: P16; test: p16 mRNA qRT-PCR after transient transfection of sgRNA/MsgDiR with or without dCas9; assay type: cell-based, human; conditions: SNU-398, 72 hours; for P16 mRNA expression (qRT-PCR): transient co-transfection with dCas9, guide G2
Description: as §1
This study transiently transfected dCas9 plasmid together with one MsgRNA plasmid (G2sgDiR) to SNU398 cells, culturing three days without selection for the positively transfected cells. Guide G2 targets one site in the template strand (also known as antisense strand) of P16 promoter; and was initially chosen for two reasons: 1) the sequence is one of the three guides used in a P16 gene study (3), and 2) G2 targets the P16 promoter region, the methylation and demethylation of which has been considered as an important factor for gene regulation.
All measurements were performed in triplicate.
as §2

Row | Molecule | P16 DNA methylation / demethylation [1] | P16 DNA methylation / demethylation ([1]; listed as CRISPR-R2R5 system) | P16 mRNA expression (qRT-PCR) [2] | P16 mRNA expression (qRT-PCR) ([2]; listed as CRISPR-R2R5 system) | P16 mRNA expression (qRT-PCR) ([2]; listed as sgDiR (G2)) | p16 activation in absence of dCas9 ([2]; transient transfection without dCas9)
1 | B1 | loss of DNA methylation | demethylation | two-fold increase | moderate gene activation |  | 
2 | B2 | not effective |  |  |  |  | 
3 | B3 | induces P16 demethylation |  | moderate activation of p16; also recorded: moderate gene activation |  | moderate activation | no effects
